Experiment: soluble on expression in E. coli; label from the status in PepcDB or PDB records

| Sequence | soluble on expression in E. coli |
| --- | --- |
| MTKETTQHRSGERIARFADIEVLSYRADLFGTLTPKQRMLCYHLSEAALRGRDITTIQNCRYNLWVRSLMERIYTHLSKSERTDDFALLEEYLFCIWFANGIHHHYSGAKFIARFSPGFLRAALREAGVELEPEEQVLLERVLYDTDFLPKQTEQSGEEDIIKASSVNFYAPGITRAEAESHYKNLIEALPENEKSCPPSFGLNTRLIRSTSGELKDEVCCIDGLYGPAIEAVVASLEAAIPYTENEEQAACIRLLCDYYRTGDIRLYDRFCIRWVENNRTRIDFINGFTEVYADPIGIHGSWEGLVHMQDEEAGRRTRIISEHAGWFEAHSPIDARFRKKNPHGISATVVNVLTIAGDSYPATPIGINLPNADWIRAEHGSKSVTIDNITDAYNHAARGTGLYEEFIPDEEVRRHVELHADLTDSLHTDLHECLGHGSGQLLPGVPGDALGEHASTLEETRADLFALYFLADPKMIELGLLTDPDAYKANYYKYMLNGLMTQLVRIKRGEEIEEAHMRNRALIARYVLEHAERPGAMSLVCEEGKTALVIKDYEAVRAIIAGLLTEVQRIKSEGDYTAGKALVERYAVHVDPLLHEEVLTRYAKLDIAPYKGFVNPRLRPVYNSEGRLTDATIEYTEGYAEQMLRYSAEYSFLPTDSPLLQEARRLRSHLRRAMDGVLSASMREKGLHYGINFGVTREHLLRLARTADASAPLADYLWRRDVRETKILATMIFPAEELTHEQATRLLREADNVELREQLTANLLERMPEAIRSIGRWIESKETTPDMMTGVLTLAARLFTRGIFPEDVPAEKLLTLAILHLSDEEQKAELRRASALLLKRYGRGSAERTKKVLCLLPESSQDTAPVLYELCEDIRFELDFYPKDE | not soluble |
| MGVLLREALRSMCVNNQWSYAVFWKIGCQNSSLLIWEECYNETESSSNPRRLCGLGVDTQGNEKVQLLTNRMMLNNRIILVGEGLVGRAAFTGHHQWILANSFNRDVHPPEVINEMLLQFSAGIQTVAVFPVVPHGVVQLGSSLPIMENLGFVNDVKGLILQLGCVPGALLSENYRTYEPAADFIGVPVSRIIPSQGHKILQSSAFVAETSKQHFNSTGSSDHQMVEESPCNLVDEHEGGWQSTTGFLTAGEVAVPSNPDAWLNQNFSCMSNVDAAEQQQIPCEDISSKRSLGSDDLFDMLGLDDKNKGCDNSWGVSQMRTEVLTRELSDFRIIQEMDPEFGSSGYELSGTDHLLDAVVSGACSSTKQISDETSESCKTTLTKVSNSSVTTPSHSSPQGSQLFEKKHGQPLGPSSVYGSQISSWVEQAHSLKREGSPRMVNKNETAKPANNRKRLKPGENPRPRPKDRQMIQDRVKELREIIPNGAKCSIDALLERTIKHMLFLQNVSKHSDKLKQTGESKIMKEDGGGATWAFEVGSKSMVCPIVVEDINPPRIFQVEMLCEQRGFFLEIADWIRSLGLTILKGVIETRVDKIWARFTVEASRDVTRMEIFMQLVNILEQTMKCGGNSKTILDGIKATMPLPVTGGCSM | not soluble |
| GSSNSHRGLAPTNVDFAFNLYQRLVALNPDKNTLISPVSISMALAMVSLGSAQTQSLQSLGFNLTETSEAEIHQSFQYLNYLLKQSDTGLEMNMGNAMFLLQKLKLKDSFLADVKQYYESEALAIDFEDWTKASQQINQHVKDKTQGKIEHVFSDLDSPASFILVNYIFLRGIWELPFSPENTREEDFYVNETSTVKVPMMVQSGSIGYFRDSVFPCQLIQMDYVGNGTAFFILPDQGQMDTVIAALSRDTIDRWGKLMTPRQVNLYIPKFSMSDTYDLKDVLEDLNIKDLLTNQSDFSGNTKDVPLTLTMVHKAMLQLDEGNVLPNSTNGAPLHLRSEPLDIKFNKPFILLLFDKFTWSSLMMSQVVNPA | soluble |
| MAKVYYEKDVTVNVLKEKKVAIIGYGSQGHAHAQNLRDNGFDVVVGLRKGKSWDKAKEDGFSVYTVAEAAKQADVVMILLPDELQPEVYEEEIAPNLQAGNSLVFAHGFNVHFDQVKPPVNVDVFLVAPKGPGHLVRRTFSEGGAVPALFAVYQDATGVATEKALSYADGIGATRAGVLETTFKEETETDLFGEQAVLCGGVTALVKAGFETLVDAGYQPELAYFECLHELKLIVDLMYEGGLENMRYSVSDTAQWGDFVSGPRVVTEDTKKAMGTVLAEIQDGTFARGWIAEHKAGKPNFYATNEKENEHEIEVVGRKLRGMMPFVQPRVKAGVK | not soluble |
| MIRRAKPLLGTLIEIAVESVVEASSQSALDEPAIQAAITAAFSRITQIGRLLSFHQQDSELNLLNRQPGQWITLSQDSLRVFKLAKWFGKASDNLFNCTIGGEMMSRGALPCYLGMPLLLQGDWQDIEIRGNQARLARPLIVTFDGIAKGYAVDMAVRELRRAGVSGGWVNAGGDLKVFGSASLDVLCRGSNGLSQKVTVRNMALASSRVSLQLSLGCPALLLPTGNVDMMSFDASNERVVSVQAPFAWRADALTKVAGYLSAEAAKDKIQQLGGQLVC | not soluble |
| MGHHHHHHGSTTQRNAQIAMGRKKFNMDPKKGIQFLIENDLLQSSPEDVAQFLYKGEGLNKTVIGDYLGERDDFNIKVLQAFVELHEFADLNLVQALRQFLWSFRLPGEAQKIDRMMEAFASRYCLCNPGVFQSTDTCYVLSFAIIMLNTSLHNHNVRDKPTAERFITMNRGINEGGDLPEELLRNLYESIKNEPFKIPEDDGNDLTHTFFNPDREGWLLKLGGRVKTWKRRWFILTDNCLYYFEYTTDKEPRGIIPLENLSIREVEDPRKPNCFELYNPSHKGQVIKACKTEADGRVVEGNHVVYRISAPSPEEKEEWMKSIKASISRDPFYDMLATRKRRIANKK | soluble |
| MQILTLISWDFKRNNNFFNQAVLNPYEYWADILEKNGISRYVILLTCNRVEIYLRAGFPEDLEAMKPNVLHDEEAIKHLMEVSSGLDSMSLGENEILKQVKEAYELSVRNGKVDKVLSLIFQKAIFVGKKVRSETEISRGKVSVPSIVYDILSSRVVQKVLIIGNGMIAGEIAPYLSGKFEVTIAGRNIDHVKDLASKYNYSYTTINDLHELIMRNDAIISATSSKTPIIRREEMVEGKLYIDLGNPRNIEDKPGADIITIDDIYSVSNRNGSARMESVDEARRIIEIEMASLMNKIKDVMIDEIFADFYKFAVVVQKMEIEKFSRMHPEIPASDVEAFAHSMINKVMNIPVMTLKSVARSQSNQDFSRIFSKFYDNFSDLVSAALQSYEGRQDTQSLRDRTRRLLQRS | not soluble |
| SMYMSNPTVRIAFVGKYLQDAGDTYFSVLQCFEHCQIALQVRLDILYVDSEELEGPNADEARKALLGCDGIFVPGGFGNRGVDGKCAAAQVARMNNIPYFGVCLGMQVAVIELSRNVVGWSDANSEEFNKESTHQVVRIMDCDRNKMGANMHLGACDVYIVEKSSIMAKIYSKSNIVVERHRHRYEVNTAYFEDLRKAGLCISAVTDPTFSSRCRVEAVENPSLRFFLAVQFHPEFISTPMDPAPTYLSFMAAAAKKDYVWPQKCSQRRLKQA | soluble |
| MKLFRVVKRGYYISYAILDNSTIIRLDEDPIKALMRYSENKEVLGDRVTGIDYQSLLKSFQINDIRITKPIDPPEVWGSGISYEMARERYSEENVAKILGKTIYEKVYDAVRPEIFFKATPNRCVGHGEAIAVRSDSEWTLPEPELAVVLDSNGKILGYTIMDDVSARDLEAENPLYLPQSKIYAGCCAFGPVIVTSDEIKNPYSLDITLKIVREGRVFFEGSVNTNKMRRKIEEQIQYLIRDNPIPDGTILTTGTAIVPGRDKGLKDEDIVEITISNIGTLITPVKKRRKIT | soluble |
| GALRSLVLIGHGSHHHGESARATQQVAEALRGRGLAGHLPYDEVLEGYWQQEPGLRQVLRTVAYSDVTVVPVFLSEGYVTETVLPRELGLGHQGPVPTGGVVRVLGGRRVRYTRPLGAHPGMADAIAAQARDTLPEGTDPADVTLLLLAARPGNAALETHAQALRERGQFAGVEVVLESREALTPESHAASAVPLSEWPSRVEAGQAVLVPFLTHLGKHAAERLQQALAQAAERFPQAPPLHVGGPVGEHPAVAEVVLALAAEGREDERGGDIDQAHAEAWAALRHLAERGGRLGEVLLTPYGGLFELRHTLDEGRATLDLQTVVTPEGLRDLTARDEAGRWRPIRTWRTLPRGWRAVLSPADLRLGLELLYPAVIEESYAHEHRRLHWTPWMSTARRQTGTLARVQRATPDQVDTVAAQVCASCLRTRLWAGHTLGQTIFSGVPGGLPCAEACTVLLAAVRDEVGREAMGSGD | soluble |
| MGSDKIHHHHHHMSAEEQINQFKKFCAAIISFDEEEWQAMEKCLRIKFLSKDDYFLRQGKTCSRMGFVCKGYTRLFFLIDGEEHTKDFCFENTFTGSLASFLVRKPAAFNVVAMEDTYMLTIEYNALMELYKNYMCWNTFGRIVVEQFAIRKENREVTFLLNTPEKRYEEVSDQYPHLLQRAPLKMIASYLNMTPETLSRIRSKKTK | not soluble |

Source: the DeepSol protein solubility set
